Test results from the DeepSol protein solubility set.

test: soluble on expression in E. coli; label from the status in PepcDB or PDB records

| Sequence | soluble on expression in E. coli |
| --- | --- |
| MPTPKAFTLLGPTACGKTALALKIAETLPVEIISLDSALLYTGMDIGTAKPSASERAFVPHHLIDIITPVQTYSAARFVEDCTRLTGEITARGKCPLIVGGTMMYFRALTQGLNDLPEADACLRADLDEQKQMYGLDFLYRTLQKVDPETACRLKPNDSQRIGRALEVYYLTGRPMSAHLNGQPEHTLPFELYTAALIPEDRARLHENIALRFHLMLEQGFIGEVENLRRRYPGLTADSPAIRCVGYRQAWEHLDGATDRQTFIEKGIAATRQLAKRQLTWLRKTPLDCVADPFSDGTSGTRLIEAAKRFFGELEHHHHHH | soluble |
| MQNLSSTQREILLALVDLYNRYKRMIKSKEVADVIGKDEGTVRNIILSLKVLGLIESKPGPNGGYVPTLKAYESIKNPIITPVFDQISLYKDGLETDIKISNIELLDITNPSGNKVLLRVNGDLRKLKVGDSIKIGPIPYTRLVIEGVVIHIDDTRKELIADVTRMISIPKVQIKSLISKKLVALKPDMTLKEASQIFYKEGIRGAPVLDNEGKTLGILTTADIIKAFFEGKYDAKVSEYMKSNVISIRDEDDILTAIKKMLIYNVGRLLVYNQDQKVIGIVTRTDILKTIAGLEELITP | soluble |
| MSLNRIFDAHCHIIDPQFPLIANNGYLPDPFGVGDYLATVQPLGVQGGAVVSGSFQGFDQGYLLQALRLLGPGFVGVTQLPASVTDTELDTLNAAGVRALRFNLKRGGSEQLDQLEALAVRVRERAGWHSELYIDSRELAEIETRLLKLPAISIDHLGLSAEGLPVVLRLAERGVRVKACGFGRVDFPVREALRDIHAANPNALMFGTDLPSTRAPRPFQPDDIELLIDALGEGGARQALWDNAAEFYREGHHHHHH | not soluble |
| MGSDKIHHHHHHMAIAIDFGTSNTVIARWNPVTQQPETITLPGLSIQQSLNPPLIPSLVYVEDANQAKILIGQQVRDRGLDLKGDTRFFRSFKRGIGADIQGFLPELDGQIVTFEQVGQWFLTEVIQQLAPLEGGLDSLVLTVPVDSFEAYRYWLGQVCQALPVEQVRMLDEPTAAALGYGLADQEILLVVDFGGGTLDLSLVQLNKSAQTNTKPVGFLLKWGNKSLAEESKQKTKTARVLAKAGQNLGGTDIDNWLVDYFTKTQGLAVSPLTTRLAERIKIQLSTQNQASEVYFDDENFESYELELNRDTLESILKEHSFFEQLDDAMANLLQQARRQGIELADINAVLLVGGTVQLPAVQTWVKQYFQPDKIRCEKPFEAIAQGALQLSQGVEIKDFLYHSYGVRYWDRRNQRHSWHSIIKAGQGYPMTQPVELVLGASLENQPSIELILGELGTETGGTEVYFDGDRLITRRLDTGVTSVKPLNDKEGARTIAQLTPPGFPGSDRIKILFQVDEQRFLRITVEDLLTNDTLLENQLVAQLS | not soluble |
| MTVPEEAQTLIGKHYRAPDHFLVGREKIREFAVAVKDDHPTHYSEPDAAAAGYPALVAPLTFLAIAGRRVQLEIFTKFNIPINIARVFHRDQKFRFHRPILANDKLYFDTYLDSVIESHGTVLAEIRSEVTDAEGKPVVTSVVTMLGLEHHHHHH | not soluble |
| MSLNKQDGENTLQHEKSSSFGYWCSPSPEQLERLSLKQLAAVSNFVIGRRGYGCITFQHDVDLTAFTKSFREELFGKIVIFRSSKTVEVYPDEATKPMIGHGLNVPAIITLENVYPVDKKTKKPMKDTTKFAEFQVFDRKLRSMREMNYISYNPFGGTWTFKVNHFEGHHHHHH | soluble |
| MNSAGLEQCGMIMTRKNYYITTDGLLKRNENTLYFINKDLKRPIPINKIYSIYSYGALTISSQALNLLSKEGIPIHFFNRYGFYSGSFYPRETLLSGDVIIKQAEHVIDHDKRIELARSFVRGAALNMRRVLSYYGIENGISDTLMDLDSSNSVTDVMNVEGRIRSDYYNAIDSILPEGFRIGKRTRRPPENMTNAMISFGNSLLYSTVITELYNTQLNPTISYLHEPFERRYSLALDLSEIFKPTLIDRMIISLIKKKAIKAEDFEHGMNHCLLNNSGKRKFLAEYDRRLGKTVKHRELGRKVSYRRLIRLEAYKLIKHLIGQKSYEPFVMWW | not soluble |
| MGESIPLAAPVPVEQAVLETFFSHLGIFSYDKAKDNVEKEREADKSAGGSWLSLLAALAHLAAAEKVYHSLTYLGQKLGGQSFFSRKDSIRTIYTSLHNELKKVVTGRGALGGTAPHVEELLSHLSEQLCFFVQARMEIADFYEKMYTLSTQKFINAEELVGLLDAIMKKYSSRFHHPILSPLESSFQLEVDVLCHLLKAQAQVSEWKFLPSLVNLHSAHTKLQTWGQIFEKQRETKKHLFGGQSQKAVQPPHLFLWLMKLKNMLLAKFSFYFHEALSRQTTASEMKTLTAKANPDFFGKISSFIRKYDAANVSLIFDNRGSESSQGHGYHHPHSYREAPKGVDQYPAVVSLPSDRPVMHWPNVIMIMTDRTSDLNSLEKVVHFYDDKVQSTYFLTRPEPHFTIVIIFESKKSERDSHFISFLNEVSLALKNPKVFASLKPGSKGSCYQCNYFVAFCLDYSKLLLQRK | not soluble |
| GEGITLNQVAVGCECQDCLWAPTGGCCPGASLHKFAYNDQGQVRLRAGLPIYECNSRCRCGYDCPNRVVQKGIRYDLCIFRTDDGRGWGVRTLEKIRKNSFVMEYVGEIITSEEAERRGQIYDRQGATYLFDLDYVEDVYTVDAAYYGNISHFVNHSCDPNLQVYNVFIDNLDERLPRIAFFATRTIRAGEELTFDYNMQVDPVDMESTRMDSNFGLAGLPGSPKKRVRIECKCGTESCRKYLF | not soluble |
| MGSDKIHHHHHHMITEKVLSYKSPLYGRRTGSLKLRPMNFFTLREFFPSCSWEELVEIYGMTDGIPFYIIQVKPPFWELLEEELKNPISFFKDEVDFLLRYEFSEVTTYKRILEAIALGKTTLKEIKDFTGLRNSDITPYLRNLIEADLIVREVPITEKKTSKKGRYYVLDNFLAFWFRFIYPNLSRIEEGIFNVDEIKGEYPRYLGWVFEKIARQFLIELNKINKLPFKFEKIGRWWYKEEEIDIVALNEREKKGLLVEVKWKTLKEREAREILEVLNKKSKLLGLEGWEKYYGLIAREIKRKEPLIEDGYLVWDLEDFEEIVKQKSREGL | not soluble |
| SALAVEADPAADRVSSLSNVSGVLGSQWGDEGKGKLVDVLAPRFDIVARCQGGANAGHTIYNSEGKKFALHLVPSGILHEGTLCVVGNGAVIHVPGFFGEIDGLQSNGVSCDGRILVSDRAHLLFDLHQTVDGLREAELANSFIGTTKRGIGPCYSSKVTRNGLRVCDLRHMDTFGDKLDVLFEDAAARFEGFKYSKGMLKEEVERYKKFAERLEPFIADTVHVLNESIRQKKKILVEGGQATMLDIDFGTYPFVTSSSPSAGGICTGLGIAPRVIGDLIGVVKAYTTRVGSGPFPTELLGEEGDVLRKAGMEFGTTTGRPRRCGWLDIVALKYCCDINGFSSLNLTKLDVLSGLPEIKLGVSYNQMDGEKLQSFPGDLDTLEQVQVNYEVLPGWDSDISSVRSYSELPQAARRYVERIEELAGVPVHYIGVGPGRDALIYK | soluble |
| GDQEPPLYVNENDIFTSPTRIEATLNGLYAAIKNTGTKSLMGGKSYLVFDNRGDDVINISNNLVTLFNTYNMNVGITDAENADTWTYAYLAINKVNTFLQSLEGAREVAGENYDRYVQEAKFVRALAYYYLNNLYPTPYSVNPDAKSVPLRLTAEAGTENNNMPRSTVKQIYEHILSDLENISALDTEVNTYTGVTHATQAAANMLKMRVYMAMNEWDKAITAGELVTGYSLPEDVTLIYKAPYFSQESIFSLPMADTNIPNTQQSLAEYYYDGKIMLIDTKSGIMSKPDYSLATDKRIIAFKGEKDLLMKFTDAKTKLQWVPIFRYAETLLDLAECYANKAGGEATAKSLLKQVRGRSVDAATDPLNIDNLSGDALKEAIYNEKRLEFIGEGIRGIDIMRRGEHFIKVGENETINVGPSDEKYTWPIPQVELLLNKDINK | soluble |
| GPGSMPHSMDTTLFSDENRIDRGDSLLFHCVQLSQGGTDSHRYFFGCYFPRWRGFYMDEARELPGPLGYNVTRHFPAFPFDVYLKDDGEHFLTDDFQIGSIFTLGGPLNQRDDGQKRYKVVHCDDSQLRTRTGKTLAFIGNNVSGLLQQTHRVSGEAIDALKRIREAYIFNVGNGIPEVGIKAMGRHFRKVGSDGRRWMSYEGIVRFVKDSRNFNATLSFSDTQRTEEDVNTVATCIYNAFPKNEEECIDYDFFMDYVRGPMSQERKDAVWNIFRRMDYDRDGNLNIIDIQACYNTQDHPTCSVDHLFQSDKMLKGFLTIWDENERCGLVPYAEFLDYYNGVSAVLEDDKVFFDVLNNQWKLL | soluble |
| SLRFVDEYRAPEQVMQLIEHLRERASHLSYTAERPLRIMEVCGGHTHAIFKFGLDQLLPENVEFIHGPGCPVCVLPMGRIDTCVEIASHPEVIFCTFGDAMRVPGKQGSLLQAKARGADVRIVYSPMDALKLAQENPTRKVVFFGLGFETTMPTTAITLQQAKARDVQNFYFFCQHITLIPTLRSLLEQPDNGIDAFLAPGHVSMVIGTDAYNFIASDFHRPLVVAGFEPLDLLQGVVMLVQQKIAAHSKVENQYRRVVPDAGNLLAQQAIADVFCVNGDSEWRGLGVIESSGVHLTPDYQRFDAEAHFRPAPQQVCDDPRARCGEVLTGKCKPHQCPLFGNTCNPQTAFGALMVSSEGACAAWYQYRQQESEA | soluble |
| MGSDKIHHHHHHMGNAAASTRAICHRRCSTYPRMNDFQSLSTEESPAPAGTNPAVNPIARIHGEPVTEIPSDLYIPPDALEVFLDTFQGPLDLLLYLIRKHNLDVLDIAMAELTRQYLAYIEMMRANKLELAAEYLLMAAVLIEIKSRMLLPKPVAKGNEDEVDPRAELVRRLLEYEQMKVAGQKLNKLPQAERDFALTNVWIEQKVIERLPEVNADDLRNAWLILMARLNVNRRHNITREELSVREHMTRILRHVQGHHFVEFSDLFNAAAGAAELVVTFLALLELVKERQVEVSQPSAFGMIYVRPISVLTTV | not soluble |
| MGSDKIHHHHHHMYKLNLDIQAFLANDWQQAPKVFKGAFPDFEDPIAADELAGLACEEEVSSRVVVTKGNDWEVISGPFEDYDRFGETHWQLLVQAVNHWYPESQPLVEAFRFLPDWRFDDLMVSFATPQGGVGPHIDNYDVFIIQGEGQRRWTVGPKGNYQRRGGVTTSPLIEDFEPIIDVVLEKGDVLYIPPGFPHQGETLTLALSYSMGYRAPSQQELAGQIADQLMDEDKGHKRFIAVDGAASHGTVSLAEQQGIMQLIRDLCNDTDNVVKVLGKLLSQNRFDLDIQEDESIDADALVEALNEGAVLMRIGGLKVLKMEGDSQARLFVAGESVIIEGASEEELIEVSNSVNVNAELAQLPHWQGFFVQMLQKGYFYLGED | not soluble |
| MMSACSDFLDREPLTTPNSETFLSNASAVNNYINGLYIALPSFGTYDMGVRGEEKNSDNIVAEVYDKRLNGELQENGGGTTEWQKGYQNLRNVNYFFEYYKVPETEETKDVLSMKGEAYFFRAYWHFYLLTRFGSIPVMDRFWDGNATVGGLQIPPRDRSAVAQFILDDLNTAKGLLHSRSQYKGLRVCKEAAIIMAMRVALYEGTWEKYHKGTDFAAAEDKSADLLGQVLTLGDELFGMGLALNTKATDKNAVNIEDAYAHIFNSKDLSDMTEVVFWKKYSIADGVIHNLSSNLGAGYVDNSGPAGLSQSLVDNYLNADGTPINPADGIFKDFNLTFKGRDGRLLATVMHSNCKFKSTSPESKSKAMLVEEYSEENKQIVRPPYLTEGGPARNATGYHIRMSIDTTYVSGQGETSLPVIRYAEALLAYAEAAEELGKCTPAVLEKTLKPLRERAGVTYKDPSEIDPNFTDFGYTISANLQEIRRERRAELALQGFRLDDLMRWRAHKLIQGKRGTGAYFGTDGVLYKAFDPKNAADLKTILTTDGWLDPQKELLPRGYQFDANRDYLLPVPPSEISLNHELKQNPGWQRK | not soluble |
